Columns and labels:
[1] = target: Myc-GST融合蛋白 (Myc-GST fusion protein); experiment: ELISA, Myc-GST coated at 5 μg/mL, HRP anti-His secondary antibody, heat-stability test at 90℃
[2] = target: Myc-GST融合蛋白 (Myc-GST fusion protein); experiment: ELISA, Myc-GST coated at 5 μg/mL, HRP anti-His secondary antibody, heat-stability test at 70℃
[3] = target: Myc-GST融合蛋白 (Myc-GST fusion protein); experiment: ELISA, Myc-GST coated at 5 μg/mL, HRP anti-His secondary antibody, heat-stability test at 80℃

B1: 抗c-Myc标签单域重链抗体 (anti-c-Myc tag single-domain heavy-chain antibody) (VHH, not shown: small tags and cut ends)
VHH: QLQLVESGGGLVQPGGSLRLSCTVSGFPLDNYAIGWLRQAPGKEREGVACISNRGGRTDYVDSVRGRFTISRDNAKKTVYLQMHNLKPEDTGIYYCVAPEMFRPCKLSSEDVRHWGHGTQVTVSS
Work on B1 yielded an OD450 [1] of 1.2 OD450, an OD450 [2] of 1.5 OD450 and an OD450 [3] of 1.3 OD450.

— CN107081136A
